Laboratory results: the DeepSol protein solubility set

Experiment: soluble on expression in E. coli; label from the status in PepcDB or PDB records

Soluble on expression in E. coli, not soluble:
MGSDKIHHHHHHMFRILTINPGSTSTKLSIFEDERMVKMQNFSHSPDELGRFQKILDQLEFREKIARQFVEETGYSLSSFSAFVSRGGLLDPIPGGVYLVDGLMIKTLKSGKNGEHASNLGAIIAHRFSSETGVPAYVVDPVVVDEMEDVARVSGHPNYQRKSIFHALNQKTVAKEVARMMNKRYEEMNLVVAHMGGGISIAAHRKGRVIDVNNALDGDGPFTPERSGTLPLTQLVDLCFSGKFTYEEMKKRIVGNGGLVAYLGTSDAREVVRRIKQGDEWAKRVYRAMAYQIAKWIGKMAAVLKGEVDFIVLTGGLAHEKEFLVPWITKRVSFIAPVLVFPGSNEEKALALSALRVLRGEEKPKNYSEESRRWRERYDSYLDGILR, MCGRFVLFTTDESLLGHPALRIFHSIHAPKGMPPARYNIAPTTIIPILRVGTTPTEAVIEPARWGLIPAWKREVTLPPLFNARAETVTTKPSFRQAFSTQRCAIPMDGYYEWHNKKPYWITTGAPTWVAGLWDSGAGMLSATMITTDSVAPLDWLHHRMPRFLNNDELAVWLRGSADEASGLLTPGDASAFHTSLADPSVGNIRNDYPELIDAPTDLFSL, MGSDKIHHHHHHQTIDETAIIARAQAIATRINEFLATRERNLLAKILALGGVQQAEIFEIQVKARLHPADVERVLAVLNHPAITVTKTSERTQYDTYFIFANGERIRIREDHRTDPGARPQPKYTLTLMAEARRFDHPKAMMLSRARYTAPADHTVRFYREYFQPDRIEELEKQRRRWRILYRDHDFAINLDTLIGQADRGPFLEIKSRTWSRRDAERRAELISELLELIGISDDALVLQEYVELVA, GPGSMGMSVTMINAIPLLRSMHANCVCPVCFEVFKKPVCFPCGHILCRACATRCIAARPRCPLCNQAVPNMRHCAPLPQLSLLCVLTREVGLRASGLQLRSSVQNAATPLSHRNHDSSMKRHRGATADDAVEETQGEHQAPRPRRSSLSPPPEQRPFLSLREPRASHRVANAVAATEGSTANHAQHTSLPELLRAAAGETQRLQSESPPPPLLMVGEGDDVLLGEAPHRSIIAQVTTSLPSAIAHRVGDSGALGRGQDQPPTPTPPPALSPSPAPFSTPLQLMCNHITDHADQLDSTPLLSPLPFTAFAVVEAASVTAAASVTHRSAQASSRVLATEHASNAKKASSWSLWRRGRGVIHCTLTPPAARLLARQSVVADGAGRGKTEAASKTASSSSAASADTAASLWHRFGCCALCGLDVVQRAAVRQRLQHLLRSPTAHCDPAELAMQTEESLSLLLGPLWGVCCEVQEHSTNIAQSQVSTCEGEYTTTELDAVQGSYCCPCRGEVTAHHVTGVAHHNCLAWAGLLDFFTNTSLEDLPAAAAAGVYFVPSMTASLHMTVPLQDPLGVLAARTSGRVARWQLLAATLCHMHQRDADEESELGKRVQTSGESGAEGPLMTPRCALCEDGAPLLASNSPSFPFGAGLRVCEGTERGESSCGQQYHYPCALLAGASACIIFGLEDECNVLDASASTPVRDRSAGGKRRGVERPVEVWCGVCHERHEVCRRRV, MSLITVANRIFVNPERAAAFEERFRRRPRRVDRQPGFIADHVLRPTQAGDPYVVLSFWDSRAAFEAWRTSPGFKDGHKEGHHHHHH, MRGFLSGEFELSSVEDAEVVIINSCGVIDFTERKIIRRMLDLKREGKKVVLAGCLTRISKEALSVADSALSPDNLDMVVDAVYSALNGRKLFTERRFIDKAEFSHLKCRLRENAIAIVSISEGCLGKCSFCATKFARGRLRSFSMDAIVREAERAVRAGYREIQLTSQDTGAYGMDKGRAMLPELLRKISEIEGEFRVRVGMMNPQHAVRMLDELINAYSSEKIYKFLHIPVQSGDNRILEDMKRNHTVEDYVEVVEAFRNSFDDVLISTDIIVGFPTETEEAFWKSYELIKETRPDIVNITRYSARKGTPAARLRDIPGWIKKERSRKLTDLMRKIGLENNKRFVGKKLRVLVTKEGKNGRNLARMNSYRAVVTEGAVGEFVEVKIKDCRFNYLIGQLAAEQPQLEHHHHHH

Soluble on expression in E. coli, soluble:
THSEEEIKIIASESQKGGVLDEFETEIIRNAVDFSDTVAKEIMTPRKDMICLNKQKSYEENMQIICEHKHTRFPYIDGSKDTILGMIHIRDIIQNELNHKSQNLDTFVKPLILVPENISISKVLVMMNKERSHTALVVDEYGGTAGILTMEDIMEEIIGEIKSEHEEDSYKKLA, MGSDKIHHHHHHMYTREELMEIVSERVKKCTACPLHLNRTNVVVGEGNLDTRIVFVGEGPGEEEDKTGRPFVGRAGMLLTELLRESGIRREDVYICNVVKCRPPNNRTPTPEEQAACGHFLLAQIEIINPDVIVALGATALSFFVDGKKVSITKVRGNPIDWLGGKKVIPTFHPSYLLRNRSNELRRIVLEDIEKAKSFIKKEG, GACEQNEDWVVNEPMQSFEENPEYAPLNTIPDWVSEKVTPKEYELWRTMSSRYEINYSFLKKDISEKRKKEIYDCINNICERIEKGQINKYEGFLNIADEDGTTLSDSQYFGRIATRSPEGGAEYKTNGCTLYTHSLGPYIKAAVTYKKSDDDVTITSSSVYTGSPYLGNDPSFSGASSVSYDKDKKLIAASCSGTLSFKDGSRKVEVTVQKTGFMIP
